B1: ARK004: mRNA: SP + WP_016359091.1 (Methanobrevibacter sp. AbM4) + TM/C; SEQ ID NO: 16679 (nucleic acid)
chain: ATGTTCGTGTTCCTCGTGCTCCTGCCCCTCGTCTCCAGCCAGTGCGTGTACCTGATGATAATCCCAATCAACGGGAGTGCACTCCACATCTTCCCCCTCCCGCCCTGGTACATCTGGCTGGGCTTCATCGCAGGACTGATCGCCATCGTCATGGTCACCATAATGCTCTGTTGCATGACCTCCTGCTGTAGCTGCCTGAAAGGCTGTTGCAGCTGCGGGAGCTGCTGCAAATTCGACGAAGACGATAGCGAACCTGTGCTCAAAGGGGTGAAGTTGCATTACACATAGTGA
modifications: listed as DNA
B2: ARK003: mRNA: SP + WP_019264904.1 (Methanobrevibacter smithii) + TM/C; SEQ ID NO: 16678 (nucleic acid)
chain: ATGTTCGTGTTCCTCGTGCTCCTGCCCCTCGTCTCCAGCCAGTGCGTGTACCTCATGACCATACCACTGAACGGCACCCCACTCCACGCCTTCCCACTGCCACCCTGGTACATCTGGCTGGGCTTCATCGCAGGACTGATCGCCATCGTCATGGTCACCATAATGCTCTGTTGCATGACCTCCTGCTGTAGCTGCCTGAAAGGCTGTTGCAGCTGCGGGAGCTGCTGCAAATTCGACGAAGACGATAGCGAACCTGTGCTCAAAGGGGTGAAGTTGCATTACACATAGTGA
modifications: listed as DNA
B3: ARK005: mRNA: SP + WP_011033493.1 (Methanosarcina mazei) + TM/C; SEQ ID NO: 16680 (nucleic acid)
chain: ATGTTCGTGTTCCTCGTGCTCCTGCCCCTCGTCTCCAGCCAGTGCGTGTACCTCATGACGGTGGTGCTCGGACACCCATTCCCGCTGACACCCTGGTACATCTGGCTGGGCTTCATCGCAGGACTGATCGCCATCGTCATGGTCACCATAATGCTCTGTTGCATGACCTCCTGCTGTAGCTGCCTGAAAGGCTGTTGCAGCTGCGGGAGCTGCTGCAAATTCGACGAAGACGATAGCGAACCTGTGCTCAAAGGGGTGAAGTTGCATTACACATAGTGA
modifications: listed as DNA

Assays:
[1] = LNP encapsulation efficiency, RiboGreen assay; assay type: physicochemical; settings: mRNA LNPs of Table 18
Experimental: (§1) To prepare lipid nanoparticles (LNPs), the mRNA stocks were thawed on ice. Nucleic acid concentrations were validated by absorbance at 260 nm using a NanoDrop. The mRNAs were then diluted to a final concentration of 0.35 mg/mL mRNA in Precision Nanosystem's dilution buffer. 10 mL of the dilute mRNAs were loaded into separate Luer lock syringes and all bubbles were removed by gentle tapping. A NanoAssemblr Ignite NxGen Cartridge was loaded into the cartridge slot of the Ignite instrument (FIG. 8A, 801) and one mRNA syringe was attached to the aqueous inlet of the cartridge. 3.3 mL of Genvoy-ILM reagent was loaded into a separate Luer lock syringes and all bubbles were removed by gentle tapping. The Genvoy-ILM syringe was then attached to the organic inlet of the cartridge. LNPs were then generated and collected into a 15 mL conical tube. The process was repeated for the remaining two mRNAs and for a buffer only LNP control (empty). Immediately after LNPs were generated, the samples were loaded into 10K dialysis cartridges, submerged into 1×DPBS (Ca^2+ and Mg^2+-free) to reduce the ethanol concentration to <0.5%. After dialysis the LNPs were recovered from the dialysis cartridges and sterile filtered at 0.2 um. Size and polydispersity (FIG. 8A, 802) were measured using a Malvern Panalytical DLS by diluting 40 uL of LNPs into 360 uL of 1×DPBS. […] Encapsulation efficiency was measured using a RiboGreen assay following Precision Nanosystems recommended protocol using a BioTek Synergy H1 Plate Reader. The resultant encapsulation efficiencies are shown in Table 14, with an average of ˜85%.
(§2) To prepare lipid nanoparticles (LNPs), the mRNA stocks were thawed on ice. Nucleic acid concentrations were validated by absorbance at 260 nm using a NanoDrop. The mRNAs were then diluted to a final concentration of 0.35 mg/mL mRNA in Precision Nanosystem's dilution buffer. 10 mL of the dilute mRNAs were loaded into separate Luer lock syringes and all bubbles were removed by gentle tapping. A NanoAssemblr Ignite NxGen Cartridge was loaded into the cartridge slot of the Ignite instrument and one mRNA syringe was attached to the aqueous inlet of the cartridge. 3.3 mL of Genvoy-ILM reagent was loaded into a separate Luer lock syringes and all bubbles were removed by gentle tapping. The Genvoy-LM syringe was then attached to the organic inlet of the cartridge. LNPs were then generated and collected into a 15 mL conical tube. The process was repeated for the remaining mRNAs and for a buffer only LNP control (empty). Immediately after LNPs were generated, the samples were loaded into 10K dialysis cartridges, submerged into Ix DPBS (Ca^2+ and Mg^2+-free) to reduce the ethanol concentration to <0.5%. After dialysis the LNPs were recovered from the dialysis cartridges and sterile filtered at 0.2 um. Size and polydispersity (FIG. 12 and FIG. 13) were measured using a Malvern Panalytical DLS by diluting 40 uL of LNPs into 360 uL of 1×DPBS. […] Encapsulation efficiency was measured using a RiboGreen assay following Precision Nanosystems recommended protocol using a BioTek Synergy H1 Plate Reader. The resultant encapsulation efficiencies are shown in Table 18, with an average of ˜60%.
(§3) To prepare lipid nanoparticles (LNPs), the mRNA stocks are thawed on ice. Nucleic acid concentrations are validated by absorbance at 260 nm using a NanoDrop. The mRNAs are then diluted to a final concentration of 0.35 mg/mL mRNA in Precision Nanosystem's dilution buffer. 10 mL of the dilute mRNAs are loaded into separate Luer lock syringes and all bubbles are removed by gentle tapping. A NanoAssemblr Ignite NxGen Cartridge is loaded into the cartridge slot of the Ignite instrument and one mRNA syringe is attached to the aqueous inlet of the cartridge. 3.3 mL of Genvoy-ILM reagent is loaded into a separate Luer lock syringes and all bubbles are removed by gentle tapping. The Genvoy-ILM syringe is then attached to the organic inlet of the cartridge. […]

[2] = LNP size and polydispersity by DLS (Malvern Panalytical); assay type: physicochemical; settings: mRNA LNPs of Table 18; for PDI: LNP polydispersity; for Z-avg.: LNP size
Experimental: as §1, §2, §3

Row | Molecule | Encapsulation efficiency [1] | PDI [2] | Z-avg. [2]
1 | B1 | 51% | 0.108 | 78.82 nm·days
2 | B2 | 40% | 0.118 | 78.82 nm·days
3 | B3 | 56% | 0.064 | 78.82 nm·days
